Results reported in patent publication US20180360907A1.

Biological target: CCR5 on human monocytes (human) (UniProt P51681)
Experiment: cell-based or functional assay

chemotactic index of human monocytes, without RAP-103 (times over control): 2
Substance: human CCL4 (MIP-1β) (from UniProt P13236 24-92) (ligand)
